Reference: US20060039900A1 (Janssen / Centocor, published 2006)

T1: murine tissue factor from murine brain extracts (murine, UniProt P20352 29-294)
T1 sequence (looked up): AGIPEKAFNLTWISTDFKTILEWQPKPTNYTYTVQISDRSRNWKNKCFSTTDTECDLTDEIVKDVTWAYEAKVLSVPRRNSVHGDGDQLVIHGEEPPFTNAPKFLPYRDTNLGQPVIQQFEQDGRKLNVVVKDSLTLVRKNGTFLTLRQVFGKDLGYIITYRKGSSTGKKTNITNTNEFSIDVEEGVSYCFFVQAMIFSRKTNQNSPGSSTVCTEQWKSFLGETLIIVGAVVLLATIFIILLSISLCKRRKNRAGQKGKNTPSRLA

T2: murine tissue factor on B6F10 melanoma cells (murine, UniProt P20352 29-294)
T2 construct: whole, on cells; also called cell-associated mTF
T2 sequence (looked up): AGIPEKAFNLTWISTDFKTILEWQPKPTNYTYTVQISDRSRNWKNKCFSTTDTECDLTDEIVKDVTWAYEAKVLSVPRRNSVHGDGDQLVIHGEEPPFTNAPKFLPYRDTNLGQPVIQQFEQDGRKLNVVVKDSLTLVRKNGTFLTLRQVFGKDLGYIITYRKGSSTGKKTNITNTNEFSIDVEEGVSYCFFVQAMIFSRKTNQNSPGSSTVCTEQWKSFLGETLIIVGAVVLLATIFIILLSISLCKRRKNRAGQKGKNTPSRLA


Columns and labels:
[1] = target: T1, murine tissue factor from murine brain …; assay: cell-based or functional assay
[2] = target: T2, murine tissue factor on B6F10 melanoma …; assay: flow cytometry (FACS) on B6F10 melanoma cells expressing mTF

| Binder | EC50 Conc. (ug/ml) for human plasma (inhibition of fibrin clot formation, murine brain extracts as source of mTF) [1] [µg/mL] | EC50 [2] [nM] |
| --- | --- | --- |
| PHD104 Fab (Fab, V domains shown) VH: QVQLVQSGAEVKKPGESLKISCKGSYSFTSNWIGWVRQMPGKGLEWMGWIYPSDSMTRYSPSFQGQVTISADKSISTAYLQWSSLKASDTAMYYCARYLFGLFDNWGQGTLVTVSS VL: DIELTQPPSVSVAPGQTARISCSGDNLGSYYVSWYQQKPGQAPVLVIYNDNNRPSGIPERFSGSNSGNTATLTISGTQAEDEADYYCATYDSSTDVFGGGTKLTVLG | 23.8 | – |
| PHD103 Fab (Fab, V domains shown) VH: QVQLVQSGAEVKKPGESLKISCKGSGYSFSNSWIAWVRQMPGKGLEWMGGIIGPGHSYTKYSPSFQGQVTISADKSISTAYLQWSSLKASDTAMYYCARINMGYFDYWGQGTLVTVSS VL: DIELTQPPSVSVAPGQTARISCSGDSLGLKKFVSWYQQKPGQAPVLVIYDDSNRPSGIPERFSGSNSGNTATLTISGTQAEDEADYYCGTYDQTIGHDVVFGGGTKLTVLG | 63.3 | – |

Other lines, results leading:

| EC50 Conc. (ug/ml) for human plasma (inhibition of fibrin clot formation, murine brain extracts as source of mTF) [1] [µg/mL] | EC50 [2] [nM] | Binder |
| --- | --- | --- |
| 0.23 | – | PHD126 Fab (Fab, V domains shown) VH: QVQLVQSGAEVKKPGESLKISCKGSYSFSNYWIGWVRQMPGKGLEWMGFIDPDDSDTNYSPSFQGQVTISADKSISTAYLQWSSLKASDTAMYYCARALYMQGGSFDSWGQGTLVTVSS VL: DIELTQPPSVSVAPGQTARISCSGDNLGSYYVSWYQQKPGQAPVLVIYRDTDRPSGIPERFSGSNSGNTATLTISGTQAEDEADYYCQSYDYGVSNQVFGGGTKLTVLG |
| 0.82 | 4.35 | PHD127 Fab (Fab, V domains shown, Human Fab from the HuCAL library) VH: QVQLVQSGAEVKKPGESLKISCKGSYSFTNSWISWVRQMPGKGLEWMGIIDPDDSYTSYSPSFQGQVTISADKSISTAYLQWSSLKASDTAMYYCARGAGYGRMFGDVWGQGTLVTVSS VL: DIELTQPPSVSVAPGQTARISCSGDNLGSYYASWYQQKPGQAPVLVIYQDDNRPSGIPERFSGSNSGNTATLTISGTQAEDEADYYCGAYTYSTSWVFGGGTKLTVLG |
